Data on 17 molecules can be found in patent publication US6124449, “High affinity TGFβ nucleic acid ligands and inhibitors” (NeXstar Pharmaceuticals, Inc.).

Data set [1] addresses T1, TGF-beta1 (hTGF-beta1) (Homo sapiens, UniProt P01137 P01137:279-390). Briefly: filter; biphasic; Kd1 12.7±4.7 nM. The conditions noted are these: tags: R&D Systems; biotinylated form (NFTG0) used for BIAcore; chain copies: 2. On the technique in general: In SPR one partner is held on a chip, and binding of the other changes the refractive index at the surface.
Data set [2] addresses T1, TGF-beta1 (hTGF-beta1). Briefly: filter; biphasic; Kd1 7.7±1.6 nM. The conditions noted are these: tags: R&D Systems; biotinylated form (NFTG0) used for BIAcore; chain copies: 2.
Data set [3] concerns the target T1, TGF-beta1 (hTGF-beta1). Briefly: filter; biphasic; Kd1 12.3±2.4 nM. The conditions noted are these: tags: R&D Systems; biotinylated form (NFTG0) used for BIAcore; chain copies: 2.
Data set [4] addresses T1, TGF-beta1 (hTGF-beta1). Briefly: filter; biphasic; Kd1 5.0±0.6 nM. The conditions noted are these: tags: R&D Systems; biotinylated form (NFTG0) used for BIAcore; chain copies: 2.
In data set [5] the target is T1, TGF-beta1 (hTGF-beta1). Briefly: filter; biphasic; Kd1 11.5±2.0 nM. The conditions noted are these: tags: R&D Systems; biotinylated form (NFTG0) used for BIAcore; chain copies: 2.
Data set [6] concerns the target T1, TGF-beta1 (hTGF-beta1). Description: cell_activity; MLEC growth suppression reversal. The conditions noted are these: tags: R&D Systems; biotinylated form (NFTG0) used for BIAcore; chain copies: 2; label: 5'-biotin for BIAcore specificity; proposed double pseudoknot. As to the method: Cells were plated at 10^5/mL in 96-well plates in MEM, 10 mM HEPES and 0.2% FBS. Following 4 hours of incubation at 37° C., when cells appeared to attach to the well surface, TGFβ1 was added at 2 pM with or without TGFβ1 ligands that ranged from 0.1 nM to 1 µM. In a second assay performed in order to determine cross-species reactivity, rather than using hTGFβ, a conditioned serum-free medium (CM) was used. CM was conditioned by culturing it in murine 3T3 fibroblast for 48 hours. Before use, this conditioned medium was heat treated at 80° C. for 10 minutes to activate the 3T3 cell derived TGFβ and then it was diluted to 50% and supplemented with 0.2% murine serum. In each assay, hTGFβ1 (or CM) was diluted appropriately in MEM and FBS (0.2% or murine serum) and the ligands were diluted in MEM. TGFβ1 (or CM) and ligand dilutions at 10× the final concentration were premixed at equal volumes and then were added to the cells. […] After incubation, the cells were washed and harvested with SKATRON filtering units and ^3H-thymidine incorporation in cellular DNA was quantitated by scintillation counting in Ecoscint. Data were plotted and analyzed as described in Park et al. (1990) J. Exp. Med. 171:1073) and Dower et al. (1984) J. Immunol.

Data set [7] has as its target T1, TGF-beta1 (hTGF-beta1). Briefly: filter; biphasic; Kd1 4.05±1.5 nM. Conditions: tags: R&D Systems; biotinylated form (NFTG0) used for BIAcore; chain copies: 2.
Data set [8] addresses T1, TGF-beta1 (hTGF-beta1). Briefly: filter; biphasic; Kd1 71.8 nM; P2 4.3%. Conditions: tags: R&D Systems; biotinylated form (NFTG0) used for BIAcore; chain copies: 2.
The target in data set [9] is T1, TGF-beta1 (hTGF-beta1). Description: filter; biphasic; Kd1 6.02±1.5 nM. Conditions: tags: R&D Systems; biotinylated form (NFTG0) used for BIAcore; chain copies: 2.
The target in data set [10] is T1, TGF-beta1 (hTGF-beta1). Description: filter; biphasic; Kd1 20.7±13.8 nM. Conditions: tags: R&D Systems; biotinylated form (NFTG0) used for BIAcore; chain copies: 2.
The target in data set [11] is T1, TGF-beta1 (hTGF-beta1). Briefly: filter; biphasic; Kd1 67 nM; P2 4.3%. The conditions noted are these: tags: R&D Systems; biotinylated form (NFTG0) used for BIAcore; chain copies: 2.
For data set [12], the target named is T1, TGF-beta1 (hTGF-beta1). Description: filter; biphasic; Kd1 13.9±4.3 nM. Conditions: tags: R&D Systems; biotinylated form (NFTG0) used for BIAcore; chain copies: 2.
The target in data set [13] is T1, TGF-beta1 (hTGF-beta1). Briefly: cell_activity; MLEC assay. The conditions noted are these: tags: R&D Systems; biotinylated form (NFTG0) used for BIAcore; chain copies: 2. The procedure:
Cells were plated at 10^5/mL in 96-well plates in MEM, 10 mM HEPES and 0.2% FBS. Following 4 hours of incubation at 37° C., when cells appeared to attach to the well surface, TGFβ1 was added at 2 pM with or without TGFβ1 ligands that ranged from 0.1 nM to 1 µM. In a second assay performed in order to determine cross-species reactivity, rather than using hTGFβ, a conditioned serum-free medium (CM) was used. CM was conditioned by culturing it in murine 3T3 fibroblast for 48 hours. Before use, this conditioned medium was heat treated at 80° C. for 10 minutes to activate the 3T3 cell derived TGFβ and then it was diluted to 50% and supplemented with 0.2% murine serum. In each assay, hTGFβ1 (or CM) was diluted appropriately in MEM and FBS (0.2% or murine serum) and the ligands were diluted in MEM. TGFβ1 (or CM) and ligand dilutions at 10× the final concentration were premixed at equal volumes and then were added to the cells. Following addition of the TGFβ1 (or CM)-ligand mixture, the cells were incubated for 16–18 hours prior to addition of ^3H-thymidine at 0.25 µCi per well and continued incubation for 7–8 additional hours. After incubation, the cells were washed and harvested with SKATRON filtering units and ^3H-thymidine incorporation in cellular DNA was quantitated by scintillation counting in Ecoscint. Data were plotted and analyzed as described in Park et al. (1990) J. Exp. Med. 171:1073) and Dower et al. (1984) J. Immunol.

Data set [14] addresses T1, TGF-beta1 (hTGF-beta1). Briefly: filter; biphasic; Kd1 14.2±4.5 nM. The conditions noted are these: tags: R&D Systems; biotinylated form (NFTG0) used for BIAcore; chain copies: 2.
For data set [15], the target named is T1, TGF-beta1 (hTGF-beta1). Description: filter; biphasic; Kd1 2.82±1.7 nM. Conditions: tags: R&D Systems; biotinylated form (NFTG0) used for BIAcore; chain copies: 2.
The target in data set [16] is T1, TGF-beta1 (hTGF-beta1). Briefly: filter; biphasic; Kd1 3.8±0.9 nM. The conditions noted are these: tags: R&D Systems; biotinylated form (NFTG0) used for BIAcore; chain copies: 2.
The target of data set [17] is T1, TGF-beta1 (hTGF-beta1). Description: filter; biphasic; Kd1 23±6.4 nM; labelled 30-35 in Table 4 class 7 but sequence is 30-25. The conditions noted are these: tags: R&D Systems; biotinylated form (NFTG0) used for BIAcore; chain copies: 2.
In data set [18] the target is T1, TGF-beta1 (hTGF-beta1). Description: filter; biphasic; Kd1 4.6±0.7 nM. The conditions noted are these: tags: R&D Systems; biotinylated form (NFTG0) used for BIAcore; chain copies: 2.

T1 sequence (P01137 279-390, one chain of several): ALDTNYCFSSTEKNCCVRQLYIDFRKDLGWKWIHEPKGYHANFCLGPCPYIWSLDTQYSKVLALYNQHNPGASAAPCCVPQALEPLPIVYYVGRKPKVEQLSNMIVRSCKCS

B1: 40-24 (ssRNA)
RNA: GGGAGGACGAUGCGGUUAUGGGCGUCAACACCGCUAUUACAACUUUCGCUUUCCCAGACGACUCGCCCGA
modifications: 2'-F C and U
For orientation: Kd means a measure of binding affinity in units of concentration. The low end stands for higher affinity, the high end for lower affinity. Turning to B1, the dissociation constant (Kd) in the data set with TGF-beta1 (hTGF-beta1) [1] worked out at 0.0275 nM. This lies in the picomolar range.

B2: 40-26 (ssRNA)
RNA: GGGAGGACGAUGCGGUUAGGGGCGUCAACAUCGCUAUUACAAUCUUCGCCUUCCCAGACGACUCGCCCGA
modifications: 2'-F C and U
In the data set with TGF-beta1 (hTGF-beta1) [2], B2 came in with a Kd of 0.0408 nM.

B3: 40-28 (ssRNA)
RNA: GGGAGGACGAUGCGGUUAGGGGCGUCAACACCGCUAUUACAACUUUCGCCUCACCAGACGACUCGCCCGA
modifications: 2'-F C and U
With B3, the Kd with TGF-beta1 (hTGF-beta1) [3] worked out at 0.0816 nM.

B4: 40-04 (ssRNA)
RNA: GGGAGGACGAUGCGGAUGCCUUUUGCCUUCAGGGUGUAAUUCCUUGAUCUGUCCGCAGACGACUCGCCCGA
modifications: 2'-F C and U
B4 displayed a Kd with TGF-beta1 (hTGF-beta1) [4] of 0.0014 nM. This counts as picomolar.

B5: 40-39 (ssRNA)
RNA: GGGAGGACGAUGCGGUGCCUUUAGCCUAAGUUGAUCUAUUCAGCUUUCUGCCGCAGACGACUCGCCCGA
modifications: 2'-F C and U
B5 showed a Kd with TGF-beta1 (hTGF-beta1) [5] of 0.00878 nM. In other words, the picomolar range.

B6: 40-03 (ssRNA)
RNA: GGGAGGACGAUGCGGGGGUUAUUGGGCGUCAACAUCCCCGAUUCUUUUCACGUCCAGACGACUCGCCCGA
modifications: 2'-F C and U
One may read the Ki as a measure of affinity in units of concentration, obtained from inhibition or displacement. With B6, the Ki with TGF-beta1 (hTGF-beta1) [6] stood at 0.4 nM.

B7: 30-10 (ssRNA)
RNA: GGGAGGACGAUGCGGUGUCUUUAGCCUAGGUGAUUCCUUCUGCCGCAGACGACUCGCCCGA
modifications: 2'-F C and U
On to B7, for which, in the data set with TGF-beta1 (hTGF-beta1) [7], the Kd came to 0.0755 nM.

B8: 30-16,27,38,46 (ssRNA)
RNA: GGGAGGACGAUGCGGUGCCUUUAGCUUAGGCAUUGCCUUCUGCCGCAGACGACUCGCCCGA
modifications: 2'-F C and U
Consider B8, for which the Kd with TGF-beta1 (hTGF-beta1) [8] stood at 0.211 nM.

B9: 30-39 (ssRNA)
RNA: GGGAGGACGAUGCGGUGUCUUUAGCUUAGGUGAUUCCUUCUGCCGCAGACGACUCGCCCGA
modifications: 2'-F C and U
B9: the affinity with TGF-beta1 (hTGF-beta1) [9], expressed as Kd, was 0.0325 nM.

B10: 30-35 (ssRNA)
RNA: GGGAGGACGAUGCGGUGUCUUUAGCCUAGGUGAUUCCUUCUGCCUCAGACGACUCGCCCGA
modifications: 2'-F C and U
Regarding B10, binding with TGF-beta1 (hTGF-beta1) [10] was put at a Kd of 0.224 nM.

B11: 30-17 (ssRNA)
RNA: GGGAGGACGAUGCGGUGCCUUUAGCUUAGGCUUUGCCUUCUGCCGCAGACGACUCGCCCGA
modifications: 2'-F C and U
For the molecule B11, in the data set with TGF-beta1 (hTGF-beta1) [11], the Kd turned out to be 0.205 nM.

B12: 40-22,35 (ssRNA)
RNA: GGGAGGACGAUGCGGUUAGGGGCGUCAACACCGCUAUUACAAUUUUCGCUUCCCAGACGACUCGCCCGA
modifications: 2'-F C and U
In the data set with TGF-beta1 (hTGF-beta1) [12], B12 returned a Kd of 0.0176 nM. This lies in the picomolar range.

B13: 40-23 (ssRNA)
RNA: GGGAGGACGAUGCGGUUAGGGGCGUCAACACCGCUAUUACAAUCUUCGCUUCCCAGACGACUCGCCCGA
modifications: 2'-F C and U
Molecule B13 came in with a Ki with TGF-beta1 (hTGF-beta1) [13] of 0.75 nM. The Kd with TGF-beta1 (hTGF-beta1) [14] is 0.0156 nM.

B14: 30-12,24,21,40,41 (ssRNA)
RNA: GGGAGGACGAUGCGGUGUCUAUAGCCUGAUUUUUAAUCUCUGCCGCAGACGACUCGCCCGA
modifications: 2'-F C and U
For B14, in the data set with TGF-beta1 (hTGF-beta1) [15], the affinity, expressed as Kd, was 0.0608 nM.

B15: 40-41 (ssRNA)
RNA: GGGAGGACGAUGCGGUGCCUUUAGCCUGAGUAUACUGAUGUAUAUUCUCUGCCGCAGACGACUCGCCCGA
modifications: 2'-F C and U
With B15, binding with TGF-beta1 (hTGF-beta1) [16] was characterised by a dissociation constant (Kd) of 0.0014 nM.

B16: 30-25 (ssRNA)
RNA: GGGAGGACGAUGCGGUUGGCAUUGAAAGAGGCGUCAUAUGUUCGCCAGACGACUCGCCCGA
modifications: 2'-F C and U
In the data set with TGF-beta1 (hTGF-beta1) [17], B16 displayed a Kd of 0.00114 nM.

B17: 40-11 (ssRNA)
RNA: GGGAGGACGAUGCGGUGCCUUUAGUCUGAAUCUUCUACCAUGAUUCUCUGCCGCAGACGACUCGCCCGA
modifications: 2'-F C and U
In the data set with TGF-beta1 (hTGF-beta1) [18], B17 gave a Kd of 0.0049 nM.
